The record followed here is a protein production outcome set (Wang et al. 2014).

The nature of this data set: label from the status in PepcDB records.
Turning to “MIGKHFIITGATSGLGFAITNELLQRGAHVTILARNIDKFNRIKENYFKPEHINVIKCDLMQRKDIESLQKFLNTPINGFIYSSGVGYFKSISEHSTREVVETYEVNLTNFNLLYKVIQPQLVKAAYIVGISSQAALVSQANAAHYGASKAGFSAVLNALRLEQPELKVLNVQPGPIDTPFQKNADPTLKYFKNYRHMMIQPQQLAKQIVEGIILNKIEINQPSWMQIMLKFYQLCPRTLEKLCPNLFKNKV”, the protein production result is given as “failed”. In the case of “MIHLVSLLALAFAVSLDSFGVGLTYGLRKMKIPFKSLLFIAGCSAVSILIAMGFGMTIQQYLSPAIAESLGGIILILIGCWALYQAFRPAKNGHKTKDDHVILNFEIKMLGVVIRILRKPMVADFDNSGAITGREAVILGIALSLDAFGAGIGAALIGFHPLYMAVSVAVMSALFVSLGMKSGYRFADSYWIKRFSFIPGLLLVLIGVFNLMM” it was “failed”; in that of “MIHSRTILVPTLLFQLALALPLAAGADSRCDDAKRLAATIPVQADGDTTRKTEDVVLESCADGAAGYFVRGLRAERAGRHDEAIKDYREALRLEPAFPRAQGNLGLALLAKGSHDDAVVELTRAISSDPDPGYHHGLAMIFGQRKIYSLALYHYAEAAKGLPADPVIPTELAALYREMGKVSDAEKQYRKALSLSPSHEEARVGLASLYMAEGRTDRAIEELKQAQIASPGNKEVSSLLAEAYEKKGDRQAADYQSLLAGKQRGVLSDERLRRGDELMQAKEYAKAAEEFKAALREKPDWPEALMRLAEAQTAAGFDDEAITSYKELIRLKLGTGDTHYNLGVLYERKGLIDEAVVEYKQAIHSSPDNGDARRRLADIYALRGSYPQAIEQYRELLKKGDNNPVLHLKLARALLGAKNPKEAMASYQDALKIAPDNLEARRELAALYRKGNQNEEAEKQYKEILRIKKDDAEARNILTALYVKSKKYDELITLLKDGVELAPNDPASHYKLGLIYEFKKDYDAAEQEYKKAVELKGDHAKSLNALGRIYLKTGKISEAKGALEAAKKADPGMEETAVLLSNIKEELSPEPPRYSKKGRKGKASKEAKKSRASKKKSSKKGAKATSKKSSTKSGGKAKKAKKSH”, “failed”; in that of “MIIADNIKQFHSIRNSLIKQQKIGFVPTMGALHNGHISLIKKAKSENDVVIVSIFVNPTQFNNPNDYQTYPNQLQQDIQILASLDVDVLFNPSEKDIYPDGNLLRIEPKLEIANILEGKSRPGHFSGMLTVVLKLLQITKPNNLYLGEKDYQQVMLIKQLVKDFFINTKIIVCPTQRQPSGLPLSSRNKNLTSTDIEIANKIYEILRQDDFSNLEELTNKINSTGAKLQYIQKLNNRIFLAFYIGKVRLIDNFLKETGPSC”, “not failed”. In the case of “MIIDTPLADRYPHAMKNQDESGDGWESLCERCGLCCFEKIEDENGTVFFTATPCRYLDVTTRQCVIYDKRFDINPECVKLTEELVRTLPWLHDDCAYRKALGVRLSKVRMNGRNKGKRG” it was “failed”; in that of “MIIEGPVIKFGDKIDTDIIIPARYLKYTDPQYLAQHVMEPLDPEFYKKASKGVIIVAGKVFGMGSSREQAAIALKAAGVKAVVAESFARIFYRNAINNGLPVITLPNSTKEIDENSYVKIDVETGEILVGNKVLKGKGITGMALEILQAGGIMEYLKKMQTVNRN”, “failed”. In the case of “MIIEYNKLGTILYSRISHKQLYNIFHYSYHEVRLLVYNKYLPIPKQFNDEFWTVEKVEHIRYLSLTGKPYKIFNEDMNSLRVLDKVRFKLDKATSISLTPKANLELEFSGIYMKSPLYLGDMSYGALSGNPNIAIATAADLTETLAGTGEGGLHPEVAKHKRIFVQWASARFGVDIRVLTAGMGVVIKIGQGAKPGIGGHLPGNKVTEPISLTRRIPIGIDAISPAPHHDIYSIEDLGQRIEALKEATGRPVFVKVAATNYIPYIVSGIARMGADGVIIDGHGAGTGATPVVIRDNVGIPIELAIASADKILRREGLRDKFTIIAAGRVSSATDAAKLFALGADIVSVGTGALIAMGCVMVHKCHVGSCPTGLTAKIDGTRVVDTEFGVKMLVNFINGFSLELANILDNLGLNNIRELRGRRDLLYGHGLSKDTLETLGIDGTEDEANPKLGELWNRRIIAYMHELMNKGNPVITSMGSTAPPDVEKPARIIDWLRSDGAQVTRPSIDPYREDVDTSFYLKGGEIYLSLPIIFDITEAPLEYKEAFSWSALALSSAVFDYETIDKYAEVFISSDGRGIARWSRNEIYENSYLLIPADENVIDEVIGMGVQGFIIDEDSGNSDLELVVSALDTKLKEVGVRNHYDILAKSSRLRHSADAFKLILLGADSVIMPYFILEKAIGEGNKGNLKEKAFSLITGMKKEIALLAGAAGVYSVQSTLTGNRELLRSINLNHSIRKALRIKPAGSL” it was “failed”; in that of “MIIGIDVGGTNTDAAIVSDEIKTIKLPNEAGIGGILKEISKEANLIEEKVVVSTSWPLNLIISKFSESRTLSLVIPGPGLNYSEYGEVLKGYVNHRGDVVEDIDEYEIAAIFRENSYDNVAISSKFSVRNGSLEDRVAEIVRNYV”, “failed”; in that of “MIIGNCLILKDFSSEPFWGAVEIENGTIKRVLQGEVKVDLDLSGKLVMPALFNTHTHAPMTLLRGVAEDLSFEEWLFSKVLPIEDRLTEKMAYYGTILAQMEMARHGIAGFVDMYFHEEWIAKAVRDFGMRALLTRGLVDSNGDDGGRLEENLKLYNEWNGFEGRIFVGFGPHSPYLCSEEYLKRVFDTAKSLNAPVTIHLYETSKEEYDLEDILNIGLKEVKTIAAHCVHLPERYFGVLKDIPFFVSHNPASNLKLGNGIAPVQRMIEHGMKVTLGTDGAASNNSLNLFFEMRLASLLQKAQNPRNLDVNTCLKMVTYDGAQAMGFKSGKIEEGWNADLVVIDLDLPEMFPVQNIKNHLVHAFSGEVFATMVAGKWIYFDGEYPTIDSEEVKRELARIEKELYSS”, “not failed”. For “MIIHIRRTDEKQRWLFFSTLLNATLAVAKLGWGWMMGSTLVVADGIHSISDVFGALLIFLALFFAAHKSERFPYGLHKLEDMAAVLGGLGILYAGYEIIHSVFFEAGIKTPEAIWTTIGFILAIVFIQYTFYFFELKAAQRLGSPGVKADAVNWLGDIGAGMIVVIGLVAHHYKVPYAQEVSVIIIVLMILKGAYDVLKEGLLSLLDAADIEMNDTIRNIVMAEPDITNIKRLNVRKSGSVYFADIELSIAEVATAKAHKSIDEVVNRLHEEINTLEAVTIHYEPDHPPYRTVVRLLDKDKKHLSIHFGQTAWLEITHIEADNKQISKEFVKNSAVIAPKGKAFRLVAYLLSIHTDTIVMGNAELDENILTLFEALNIEVKKEKNDET”, the protein production result was “failed”.

Turning to “MIIIMAGGKSSRMGREKPVLKIAGKEMLLWVYEQAEAVGEVLVALSRHTPRTRELCLREGIEFVDTPGRGYVKDVQWLLREFGPFISLSSDIPFVKSSDIYSLLKEFDGKVSLTGVLPLEVVPKDLTPYSYMGYAIVGINGVAKEGEKFFVFSNPLLALNVNTPRELELAKRVAEIIRVRGIRLEHHHHHH”, the protein production entry was “not failed”. Turning to “MIILPKTLYEEMLNHCLNSLPIEACGLLGGVIEDEKRIVKKVYLLTNVDQSPEHFSMDPLEQFAAVKDMRKNGWVLLGNFHSHPTTPARPSEEDKRLAFDKSLSYLILSLMDEKNPVLKSFRIYESYVEEEEIQIILEHHHHHH”, the protein production result is on record as “failed”. For “MIIRDQLILSIDNDLRDLIKARDIGVIYVYREETGEPEPGPSIEDIDLPEPLLEALKKRGIRRLYRFQYDAYKSILNGENVVITAGTGTGKTEAFLLPILSKIYEKRTPNPQAMLVYPTKALARDQLQRINDYLGYGVFSAAVYDGDTPRRIRQKISANPPDIVVTNPDMIHVGLVLSPTIRRFVKASQFMVIDELHVYEGVFGSNVKCVFERINKYRRNNPPQYIGSSATIGNPREHAETLFGVPVKVIEGPLRRRGIAYHVLVSAGKLSRWTVTAALASVLARRGLRFIVFVDSQQMAELIARIAWRSYGVDIMVHRAGLPADERKMIESKLRAGEISGVAATPTLELGIDIGFLDAVIMAAPPPSFAKYLQRAGRAGRRGRKGYVFTVLADDPIDAYYERNPKRYFEQEIPPLYMDPENEEVLRIHLLALLLEQGRIRRDELKRAWLRVAERLRYERLVAWVGPYIYPNYRLARKIFMEYMSIRGSGPQVVIYDVDEKNIVGYRELPQAVLDLHPDAVYLLNRRVYKSIEIDVDKKIARVKRLPDDTPYYTRPLYTVDLVDYSILASRTSSRGIPLAYAWVKLSINVEGYIVRNYWETEKAGIKYWFDHPITYTYNTKALLLKYPENPEWDYMSNAEAFHAIEHALISAARPVCGAALGEMGGISYPSGDIVIYDGAPGGSGLAKLLFERFEKAEEIAYEIVSKCDCEDGCPRCIYSPYCGNNNQVLSRRKATYVLGNILKRGAVKVMEPIKNRYGKPIV” the value was “failed”; for “MIIRNGCLEDLQQVISIEQINFSEAEAASKKAMQERLTIMTDTFLVAEINGRLAGYIEGPVIKGRYLTDDLFHKVSEFPVRVGGFIGITSLSIHPDFKGQGIGTALLAAMKDLVVSQERDGISLTCHDDLISFYEMNGFKDEGESDSKHGGSLWYNMIWNNPTRSIC”, “failed”. As for “MIIRYATPDDIEDMVSIFIDAYNFPGPRESVKSSFEISLEVQPDGCLLAFLKDEPVGMGCIFFYNKQAWIGLMGVKKAYQRRGIGTEVFRRLLEIGRRKVDTIRLDASSQGYGLYKKFKFVDEYRTVRYELMERPIKRVEGVVEVNKIPNWVKEIDKKAFGDDRIRVLEAYMRRGARLLCAENEGFGLVYRGKIGPLVADSPRVAEKILLKAFQLGAREIIIPEVNKDALELIKIFKPSQVTSCMRMRLGSKIEEKVDIYYGILAYAKG”, the protein production result is “not failed”.

Turning to “MIITIARQCGCGGHEVARILANKLGMELFDKKKLLEEANQLGQAEEHSNFFNEVPINSLLYGIAMGFGNTKPMDKSLKLVKAITENKDAIIIGRCANIIYKDSKDVTSVYLFADKEFRIKYLMERDGISEKEAEKYIKEVDEKRTSFHKYCTDTVWGDAKEYQLCLDTGKIGFEKTAELIMNYINAKKES”, the protein production result is “failed”.

On to “MIITLFVMVSGNKVKYEGSGKSGLWMSNLEKSDKTSIGPNYFLNLYWQGSKKEEKWTVVERITLYVDGEKYQDDNVDEYDLSEYTGDEMPGGGRMEDHISTFDYMPEDEVIGHDVLVKVEWRTGQKKQTEAIKLHKKPWYKKLEHHHHHH”, for which the protein production result was “failed”. On to “MIITQGPQFQGKASKRLHVMAKPIGAVCNIDCSYCYYLSKEDLLEYKKGCSPQMDDETLETYIRQYIEGQNTPEIIFSWQGGEPTLLGLDYFKKIVEFQKKYQPEGILISNDLQTNGTLLTDKWCEFLAENNFLVGLSIDGPEMLHNAYRTNKAGRGTFKQVMNAVELLHKHNVKFATLTCVNNLTSRNPLEVYRFLRDV”, for which the protein production entry is listed as “failed”. For “MIKAYFGAETFTLNKDFAYILVIGTTDVSLIPGLTIAGATPELTHFTPAADAEYVILGKCKSINTIPVSPTGIPTPALLTRASLSFTKSLKIVVNAGSRITPKIPYIDLQGEPGKDIRKQALSIEKVNIIIENGIKLGEELSNEYELIMIGESIPAGTTTAMATLLALGYDAMDKVSSASPDNPKELKRKVVEEALRNLPTDPLQRLAKVSDPVLLGVAGISLGFRGKILLAGGTQMTAAAAIVNEFDKSKLKDIIIGTTKWIVEDKSADMLSLAKQVGVKVLASMLDLSISIHEGIRTYEKGYVKEGVGAGGSTIMAFIRGVSNSTLVRKIDELYSELVGSNNLNT” the value was “failed”; for “MIKDRFLQLIQLLISLFLIMGALGIGITIQKFTGVSVPGSVIGMLVLFFSMTLGLVKVDWVKPGATLFIRYMILLFVPISVGLMQHFDMLLANALPIIASAVGGSLIVLVSLAWLLDYLLKEKH”, “failed”; for “MIKERPKFNWLHLLIFIVVVEAIGSLSAWLAGDIKAVYNGLNLPVLSPPDGLFGIVWPILYALIAIAGYLVFQQATTHRDRLMDATLFGIQLLLNFIWSIIFFSQSAYWWGLVIIIVLDLVVLLCILRFYRSSRLAAILMVPYLVWICFATYLTLGVALLN”, “failed”.
